Reference: publication doi:10.1101/2022.03.08.483475 (bioRxiv, 2022)
Like-named read-outs stand apart in the source and are kept apart here.

B1: acyl carrier protein (AcpP) found in MukB preparations (natural protein, E. coli, UniProt P0A6A8 1-78, looked up)
chain: MSTIEERVKKIIGEQLGVKQEEVTNNASFVEDLGADSLDTVELVMALEEEFDTEIPDEEAEKITTVQAAIDYINGHQA
B2: MukF (wild type) (natural protein, E. coli, UniProt P60293 1-440, looked up)
chain: MSEFSQTVPELVAWARKNDFSISLPVDRLSFLLAVATLNGERLDGEMSEGELVDAFRHVSDAFEQTSETIGVRANNAINDMVRQRLLNRFTSEQAEGNAIYRLTPLGIGITDYYIRQREFSTLRLSMQLSIVAGELKRAADAAEEGGDEFHWHRNVYAPLKYSVAEIFDSIDLTQRLMDEQQQQVKDDIAQLLNKDWRAAISSCELLLSETSGTLRELQDTLEAAGDKLQANLLRIQDATMTHDDLHFVDRLVFDLQSKLDRIISWGQQSIDLWIGYDRHVHKFIRTAIDMDKNRVFAQRLRQSVQTYFDEPWALTYANADRLLDMRDEEMALRDEEVTGELPEDLEYEEFNEIREQLAAIIEEQLAVYKTRQVPLDLGLVVREYLSQYPRARHFDVARIVIDQAVRLGVAQADFTGLPAKWQPINDYGAKVQAHVIDKY
B3: ParC subunit of topoisomerase IV (natural protein, E. coli, UniProt P0AFI2 1-752, looked up)
chain: MSDMAERLALHEFTENAYLNYSMYVIMDRALPFIGDGLKPVQRRIVYAMSELGLNASAKFKKSARTVGDVLGKYHPHGDSACYEAMVLMAQPFSYRYPLVDGQGNWGAPDDPKSFAAMRYTESRLSKYSELLLSELGQGTADWVPNFDGTLQEPKMLPARLPNILLNGTTGIAVGMATDIPPHNLREVAQAAIALIDQPKTTLDQLLDIVQGPDYPTEAEIITSRAEIRKIYENGRGSVRMRAVWKKEDGAVVISALPHQVSGARVLEQIAAQMRNKKLPMVDDLRDESDHENPTRLVIVPRSNRVDMDQVMNHLFATTDLEKSYRINLNMIGLDGRPAVKNLLEILSEWLVFRRDTVRRRLNYRLEKVLKRLHILEGLLVAFLNIDEVIEIIRNEDEPKPALMSRFGLTETQAEAILELKLRHLAKLEEMKIRGEQSELEKERDQLQGILASERKMNNLLKKELQADAQAYGDDRRSPLQEREEAKAMSEHDMLPSEPVTIVLSQMGWVRSAKGHDIDAPGLNYKAGDSFKAAVKGKSNQPVVFVDSTGRSYAIDPITLPSARGQGEPLTGKLTLPPGATVDHMLMESDDQKLLMASDAGYGFVCTFNDLVARNRAGKALITLPENAHVMPPVVIEDASDMLLAITQAGRMLMFPVSDLPQLSKGKGNKIINIPSAEAARGEDGLAQLYVLPPQSTLTIHVGKRKIKLRPEELQKVTGERGRRGTLMRGLQRIDRVEIDSPRRASSGDSEE
B4: MukB (wild type) (natural protein, E. coli, UniProt P22523 1-1486, looked up)
chain: MIERGKFRSLTLINWNGFFARTFDLDELVTTLSGGNGAGKSTTMAAFVTALIPDLTLLHFRNTTEAGATSGSRDKGLHGKLKAGVCYSMLDTINSRHQRVVVGVRLQQVAGRDRKVDIKPFAIQGLPMSVQPTQLVTETLNERQARVLPLNELKDKLEAMEGVQFKQFNSITDYHSLMFDLGIIARRLRSASDRSKFYRLIEASLYGGISSAITRSLRDYLLPENSGVRKAFQDMEAALRENRMTLEAIRVTQSDRDLFKHLISEATNYVAADYMRHANERRVHLDKALEFRRELHTSRQQLAAEQYKHVDMARELAEHNGAEGDLEADYQAASDHLNLVQTALRQQEKIERYEADLDELQIRLEEQNEVVAEAIERQQENEARAEAAELEVDELKSQLADYQQALDVQQTRAIQYNQAIAALNRAKELCHLPDLTADCAAEWLETFQAKELEATEKMLSLEQKMSMAQTAHSQFEQAYQLVVAINGPLARNEAWDVARELLREGVDQRHLAEQVQPLRMRLSELEQRLREQQEAERLLADFCKRQGKNFDIDELEALHQELEARIASLSDSVSNAREERMALRQEQEQLQSRIQSLMQRAPVWLAAQNSLNQLSEQCGEEFTSSQDVTEYLQQLLEREREAIVERDEVGARKNAVDEEIERLSQPGGSEDQRLNALAERFGGVLLSEIYDDVSLEDAPYFSALYGPSRHAIVVPDLSQVTEHLEGLTDCPEDLYLIEGDPQSFDDSVFSVDELEKAVVVKIADRQWRYSRFPEVPLFGRAARESRIESLHAEREVLSERFATLSFDVQKTQRLHQAFSRFIGSHLAVAFESDPEAEIRQLNSRRVELERALSNHENDNQQQRIQFEQAKEGVTALNRILPRLNLLADDSLADRVDEIRERLDEAQEAARFVQQFGNQLAKLEPIVSVLQSDPEQFEQLKEDYAYSQQMQRDARQQAFALTEVVQRRAHFSYSDSAEMLSGNSDLNEKLRERLEQAEAERTRAREALRGHAAQLSQYNQVLASLKSSYDTKKELLNDLQRELQDIGVRADSGAEERARIRRDELHAQLSNNRSRRNQLEKALTFCEAEMDNLTRKLRKLERDYFEMREQVVTAKAGWCAVMRMVKDNGVERRLHRRELAYLSADDLRSMSDKALGALRLAVADNEHLRDVLRMSEDPKRPERKIQFFVAVYQHLRERIRQDIIRTDDPVEAIEQMEIELSRLTEELTSREQKLAISSRSVANIIRKTIQREQNRIRMLNQGLQNVSFGQVNSVRLNVNVRETHAMLLDVLSEQHEQHQDLFNSNRLTFSEALAKLYQRLNPQIDMGQRTPQTIGEELLDYRNYLEMEVEVNRGSDGWLRAESGALSTGEAIGTGMSILVMVVQSWEDESRRLRGKDISPCRLLFLDEAARLDARSIATLFELCERLQMQLIIAAPENISPEKGTTYKLVRKVFQNTEHVHVVGLRGFAPQLPETLPGTDEAPSQAS

Assays:
MukB (wild type) [1] = molecular target: B4; assay: co-purification, SDS-PAGE with Coomassie staining
MukB (wild type) [2] = molecular target: B4; assay: cross-linking
MukB (wild type) [3] = molecular target: B4; assay: cross-linking; remark: listed apart in the source
cross-linking = molecular target: the molecule itself; assay: cross-linking

Binder: B1
stoichiometry N (MukB (wild type) [1]): 1 AcpP:MukB

Binder: B2
binding result (MukB (wild type) [2]): binds

Binder: B3
binding result (MukB (wild type) [3]): binds

Binder: B4
binding result (cross-linking): binds
